Reference: patent US20110142851A1 (EMERGENT PRODUCT DEVELOPMENT SEATTLE, published 2011)

T1: hu HIL6 Fc dimer (dimeric human HIL6/mouse IgG Fc fusion protein) (human)
T1 construct: also called human hyper-IL6 (IL6R-IL6-mIgG); dimeric HIL6
T1 chain: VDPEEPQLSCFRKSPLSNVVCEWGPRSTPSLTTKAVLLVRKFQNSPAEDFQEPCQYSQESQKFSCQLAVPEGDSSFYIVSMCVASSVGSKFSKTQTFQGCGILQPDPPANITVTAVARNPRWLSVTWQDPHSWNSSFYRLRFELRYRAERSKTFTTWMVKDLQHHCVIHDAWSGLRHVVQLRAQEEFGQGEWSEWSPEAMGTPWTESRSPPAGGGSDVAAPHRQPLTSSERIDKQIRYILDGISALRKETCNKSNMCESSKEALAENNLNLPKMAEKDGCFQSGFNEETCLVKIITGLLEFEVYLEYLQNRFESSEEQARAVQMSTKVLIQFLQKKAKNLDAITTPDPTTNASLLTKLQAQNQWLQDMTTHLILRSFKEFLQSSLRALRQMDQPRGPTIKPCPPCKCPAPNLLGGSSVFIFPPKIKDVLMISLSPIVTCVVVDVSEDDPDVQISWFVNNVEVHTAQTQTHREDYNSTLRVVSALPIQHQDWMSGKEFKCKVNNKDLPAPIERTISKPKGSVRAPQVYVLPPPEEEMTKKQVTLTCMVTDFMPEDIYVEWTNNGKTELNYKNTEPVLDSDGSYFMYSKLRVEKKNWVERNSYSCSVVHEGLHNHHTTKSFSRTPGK

T2: human gp130-Fc chimera (R&D Systems) (human, UniProt P40189 23-619)
T2 construct: Bought product; also called Human gp130-human IgG Fc fusion protein; soluble gp130; not shown: human IgG Fc
T2 sequence (looked up): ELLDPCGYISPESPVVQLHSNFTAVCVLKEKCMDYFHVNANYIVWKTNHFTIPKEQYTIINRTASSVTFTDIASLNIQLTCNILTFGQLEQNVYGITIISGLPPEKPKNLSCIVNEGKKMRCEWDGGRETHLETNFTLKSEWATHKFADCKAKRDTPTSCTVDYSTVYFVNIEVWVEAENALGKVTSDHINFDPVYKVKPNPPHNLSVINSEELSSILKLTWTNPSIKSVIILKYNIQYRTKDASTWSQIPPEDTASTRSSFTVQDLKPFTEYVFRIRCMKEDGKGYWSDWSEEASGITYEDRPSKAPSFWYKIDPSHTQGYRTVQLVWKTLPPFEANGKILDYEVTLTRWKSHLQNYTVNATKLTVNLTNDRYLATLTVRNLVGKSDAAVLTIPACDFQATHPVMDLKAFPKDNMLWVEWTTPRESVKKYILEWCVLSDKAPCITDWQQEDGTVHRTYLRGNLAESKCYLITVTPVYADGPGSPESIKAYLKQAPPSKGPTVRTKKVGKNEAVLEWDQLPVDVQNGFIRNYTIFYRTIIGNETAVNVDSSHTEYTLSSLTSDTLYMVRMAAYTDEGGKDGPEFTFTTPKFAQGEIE

B1: TRU(S6)-1002 (Fc fusion)
chain: EVQLLESGGGLVQPGGSLRLSCAASGFTFSFYQMHWVRQAPGKGLEWVSGIYPSGGYTKYADSVKGRFTISRDNSKNTLYLQMNSLRAEDTAVYYCARDLGYGSSWYYFDYWGQGTLVTVSSGGGGSGGGGSGGGGSQSALTQPASVSGSPGQSITISCSGTDSDVGGYNHVSWYQQHPGKAPKLIIYDVDHRPSGISNRFSGSKSGNTASLTISGLQAEDEADYYCSSYRSGSTYVFGTGTKVTVLTGEPKSSDKTHTCPPCPAPEAAGAPSVFLFPPKPKDTLMISRTPEVTCVVVDVSHEDPEVKFNWYVDGVEVHNAKTKPREEQYNSTYRVVSVLTVLHQDWLNGKAYACAVSNKALPAPIEKTISKAKGQPREPQVYTLPPSRDELTKNQVSLTCLVKGFYPSDIAVEWESNGQPENNYKTTPPVLDSDGSFFLYSKLTVDKSRWQQGNVFSCSVMHEALHNHYTQKSLSLSPGK
notes: SMIP (scFv - linker - CH2CH3); also called S6-A2
B2: sIL6R Fc dimer (Fc fusion, UniProt P08887 20-358, looked up)
chain: LAPRRCPAQEVARGVLTSLPGDSVTLTCPGVEPEDNATVHWVLRKPAAGSHPSRWAGMGRRLLLRSVQLHDSGNYSCYRAGRPAGTVHLLVDVPPEEPQLSCFRKSPLSNVVCEWGPRSTPSLTTKAVLLVRKFQNSPAEDFQEPCQYSQESQKFSCQLAVPEGDSSFYIVSMCVASSVGSKFSKTQTFQGCGILQPDPPANITVTAVARNPRWLSVTWQDPHSWNSSFYRLRFELRYRAERSKTFTTWMVKDLQHHCVIHDAWSGLRHVVQLRAQEEFGQGEWSEWSPEAMGTPWTESRSPPAENEVSTPMQALTTNKDDDNILFRDSANATSLPVQD
notes: not shown: Fc
B3: TRU(S6)-1013 (Fc fusion)
chain: EVQLLESGGGLVQPGGSLRLSCAASGFTFSGYVMGWVRQAPGKGLEWVSSISPSGGYTLYADSVKGRFTISRDNSKNTLYLQMNSLRAEDTAVYYCARAFSTRWYWGAFDIWGQGTMVTVSSGGGGSGGGGSGGGGSQDIQMTQSPATLSLSPGERATLSCRASQSVRSYLAWYQQKPGQAPRLLIYDASNRATGIPARFSGSGSGTDFTLTITSLQPEDIATYYCQQYDNLPLTFGGGTKVEIKTGEPKSSDKTHTCPPCPAPEAAGAPSVFLFPPKPKDTLMISRTPEVTCVVVDVSHEDPEVKFNWYVDGVEVHNAKTKPREEQYNSTYRVVSVLTVLHQDWLNGKAYACAVSNKALPAPIEKTISKAKGQPREPQVYTLPPSRDELTKNQVSLTCLVKGFYPSDIAVEWESNGQPENNYKTTPPVLDSDGSFFLYSKLTVDKSRWQQGNVFSCSVMHEALHNHYTQKSLSLSPGK
notes: SMIP (scFv - linker - CH2CH3)
B4: SEQ ID NO: 679 (scFv) (scFv)
scFv: EVQLLESGGGLVQPGGSLRLSCAASGFTFSWYLMHWVRQAPGKGLEWVSGIWPSGGHTLYADSVKGRFTISRDNSKNTLYLQMNSLRAEDTAVYYCAREPLLWFGELSYNWFDPWGQGTLVTVSSGGGGSGGGGSGGGGSQDIQMTQSPSSVSASVGDRVTITCRASQGISSWLAWYQQKPGKAPKLLIYAASSLQSGVPSRFSGSGSGTDFTLTISSLQPEDFATYYCQQANSFPLTFGGGTKVEIK
B5: hu HIL6 AFH monomer (other)
chain: PEEPQLSCFRKSPLSNVVCEWGPRSTPSLTTKAVLLVRKFQNSPAEDFQEPCQYSQESQKFSCQLAVPEGDSSFYIVSMCVASSVGSKFSKTQTFQGCGILQPDPPANITVTAVARNPRWLSVTWQDPHSWNSSFYRLRFELRYRAERSKTFTTWMVKDLQHHCVIHDAWSGLRHVVQLRAQEEFGQGEWSEWSPEAMGTPWTESRSPPAGGGSDVAAPHRQPLTSSERIDKQIRYILDGISALRKETCNKSNMCESSKEALAENNLNLPKMAEKDGCFQSGFNEETCLVKIITGLLEFEVYLEYLQNRFESSEEQARAVQMSTKVLIQFLQKKAKNLDAITTPDPTTNASLLTKLQAQNQWLQDMTTHLILRSFKEFLQSSLRALRQM
B6: SEQ ID NO: 671 (scFv) (scFv)
scFv: EVQLLESGGGLVQPGGSLRLSCAASGFTFSFYQMHWVRQAPGKGLEWVSGIYPSGGYTKYADSVKGRFTISRDNSKNTLYLQMNSLRAEDTAVYYCARDLGYGSSWYYFDYWGQGTLVTVSSGGGGSGGGGSGGGGSQSALTQPASVSGSPGQSITISCSGTDSDVGGYNHVSWYQQHPGKAPKLIIYDVDHRPSGISNRFSGSKSGNTASLTISGLQAEDEADYYCSSYRSGSTYVFGTGTKVTVL

How the values were obtained:
[1] = biological target: T3, IL6:sIL6R complex (human, UniProt P05231 30-212; P08887 20-358); assay: SPR Biacore, SMIP captured by anti-human Fc, complex injected
T3 construct: Non-covalent complex made by mixing 50 nM of each; about 30 nM complex estimated
Description: (§1) In every cycle, three different HIL6 binders were captured on flow cells 2, 3 and 4, while flow cell 1 was used as the reference cell. For each cycle, a single concentration of a single HIL6-related molecule was injected for 150 seconds at 35 microliters per minute, and then allowed to dissociate for 300 seconds. At the end of the cycle, the surface was regenerated gently using 3M MgCl₂, which dissociates protein bound to anti-hFc capture antibody. Multiple cycles were performed to study binding of monomeric or dimeric HIL6 at different concentrations, in the range of 0-100 nM, for each set of three HIL6 binders captured. […] The experiment was performed at 25° C. Signal associated with binding to the reference cell was used to subtract for bulk refractive changes and blank (buffer-only) injections were used to correct for drift and system noise. The kinetic parameters and affinities were determined using BIAevaluation software. Anti-HIL6 scFv molecules were analyzed in the reverse orientation using a dimeric human HIL6/mouse IgG Fc fusion protein captured by an immobilized rabbit polyclonal anti-mouse IgG Fc antibody on the surface and injecting different concentrations of scFv over the surface. For the HIL6 components IL6 (eBioscience, catalog no. 14-8069) and sIL6R, a single 100 nM injection was performed to obtain a qualitative assessment of binding.

[2] = biological target: T4, recombinant human IL6 (human, UniProt P05231 30-212); assay: SPR Biacore T100, binder captured by anti-human Fc
T4 construct: also called rhIL6; IL6 monomer
Description: (§2) Binding affinities and kinetic rate constants of interaction of hyper-IL6 (HIL6; monomer or dimer), and its components IL6 and sIL6R, with different anti-HIL6 binding domains in scFv, SMIP, Xceptor and reverse Xceptor formats were determined using a Biacore® T100 instrument (GE Healthcare, Piscataway, N.J.).
as §1, with “Anti-HIL6 SMIPS, Xceptors, and reverse Xceptors were captured by a monoclonal mouse anti-human Fc, which was covalently conjugated to a carboxylmethyl dextran (CM4) surface via amines using N-ethyl-N′-(3-dimethylaminopropyl)-carbodiimide hydrochloride and N-hydroxysuccinimide. The unoccupied sites of the activated surface were blocked by ethanolamine. […] In” for “In”

[3] = biological target: T1, hu HIL6 Fc dimer (dimeric human …); assay: SPR Biacore T100, binder captured by anti-human Fc
Description: as §2
as §1, with “Anti-HIL6 SMIPS, Xceptors, and reverse Xceptors were captured by a monoclonal mouse anti-human Fc, which was covalently conjugated to a carboxylmethyl dextran (CM4) surface via amines using N-ethyl-N′-(3-dimethylaminopropyl)-carbodiimide hydrochloride and N-hydroxysuccinimide. The unoccupied sites of the activated surface were blocked by ethanolamine. […] In” for “In”

[4] = biological target: B5; assay: SPR Biacore T100, binder captured by anti-human Fc
Description: as §2
as §1, with “Anti-HIL6 SMIPS, Xceptors, and reverse Xceptors were captured by a monoclonal mouse anti-human Fc, which was covalently conjugated to a carboxylmethyl dextran (CM4) surface via amines using N-ethyl-N′-(3-dimethylaminopropyl)-carbodiimide hydrochloride and N-hydroxysuccinimide. The unoccupied sites of the activated surface were blocked by ethanolamine. […] In” for “In”

[5] = biological target: T2, human gp130-Fc chimera (R&D Systems); assay: SPR Biacore T100, binder captured by anti-human Fc
[6] = biological target: B2; assay: SPR Biacore T100, binder captured by anti-human Fc
Description: as §2
as §1, with “Anti-HIL6 SMIPS, Xceptors, and reverse Xceptors were captured by a monoclonal mouse anti-human Fc, which was covalently conjugated to a carboxylmethyl dextran (CM4) surface via amines using N-ethyl-N′-(3-dimethylaminopropyl)-carbodiimide hydrochloride and N-hydroxysuccinimide. The unoccupied sites of the activated surface were blocked by ethanolamine. […] In” for “In”

[7] = biological target: T1, hu HIL6 Fc dimer (dimeric human …); assay: SPR Biacore T100, HIL6-mouse Fc captured by anti-mouse Fc, scFv injected

| Binder | binding result [2] | Kd [3] | Kd [4] | Kd [7] | other results |
| --- | --- | --- | --- | --- | --- |
| B1 | no binding (tested: 100 nM) | 1.3 nM | 2 nM |  | binding result [1]: binds |
| B2 |  |  |  |  | binding result [5]: no binding (tested: 100 nM) |
| B3 | no binding (tested: 100 nM) | 200 nM | 31 nM |  | binding result [6]: no binding (tested: 100 nM) |
| B4 |  |  |  | 1.46 nM |  |
| B5 |  |  |  |  | Kd [5]: 0.68 nM |
| B6 |  |  |  | 1.04 nM |  |
